Changes are numbered by the printed parent chain. Numbers in names are those of the source.

The assay addresses humanized EBV321. Briefly: ELISA. The note with it: chain shown with the change; point at the highest antibody concentration, about 13.3 nM (read from x axis); VEGF captured on ELISA plate; parent: est. 0.66; read off a plot. A general note: ELISA stands for enzyme-linked immunosorbent assay.

B1: rabbit IgG Fc-hVEGF (human VEGF165) fusion protein, wild type, P15692-4 G88A (protein)
chain: APMAEGGGQNHHEVVKFMDVYQRSYCHPIETLVDIFQEYPDEIEYIFKPSCVPLMRCGGCCNDEGLECVPTEESNITMQIMRIKPHQAQHIGEMSFLQHNKCECRPKKDRARQENPCGPCSERRKHLFVQDPQTCKCSCKNTDSRCKARQLELNERTCRCDKPRR
As to B1, the response was 0.73 OD (405nm).

B2: rabbit IgG Fc-hVEGF (human VEGF165) fusion protein, wild type, P15692-4 I46A (protein)
chain: B1 chain with I46A, A88G
Consider B2, for which the response was 0.7 OD (405nm).

Source of the values: publication PMC2816707.
